Test results: patent publication US20110045003A1 (SYNOVEX, published 2011)
Residue numbers refer to the chain shown, from its start. Names and notes keep the numbering of the source. Each block holds one molecule with its values, some of them ahead of it.

Columns and labels:
[1] = molecular target: human Cadherin-11 protein expressed on 431-D-11 cells (human) (UniProt P55287); experiment: cell-based or functional assay
[2] = molecular target: T1, BSA coupled 37-mer Cad-11 peptide encompassing the Cad-11 immunogen (UniProt P55287 54-90, limits assumed, linked to BSA); experiment: ELISA, BSA-coupled 37-mer cadherin peptide coated at 500 ng/ml, antibody titrated, A450
T1 construct: domain: 37-mer peptide encompassing the Cad-11 immunogen; also called Cad-11 antigen; Cad-11 peptide immunogen
T1 peptide (looked up): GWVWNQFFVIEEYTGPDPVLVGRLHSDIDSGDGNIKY
Method: Reactibind plates (ThermoScientific) were coated with 500 ng/ml of the BSA coupled cadherin 37-mer peptide (NE peptide) corresponding to Cadherins-7, -8, -9, -11, -18, -20, and -24 in 0.05% Tween (EMD, product code 9480) in PBS (pH 7.2) (Gibco(Invitrogen), #20012) at 100 μl volume/well for overnight at 4° C. The peptide containing solution was removed from the well and the plate blocked with a 2% bovine serum albumin (BSA) in PBS, 200 μl volume/well, for 2 h at 22° C. The plate was then washed twice with 200 μl/well of PBS-Tween 0.05% at 22° C. and blotted dry. A dilution series from 5 μg/ml to 8 ng/ml in a volume of 100 μl/well of each the humanized anti-Cad-11 antibodies were incubated in the peptide coated wells and incubated at 22° C. for 1 hr. Antibody solution was removed from the wells and the plate washed twice with 200 μl/well of 0.05% Tween-PBS at 22° C. and blotted dry. The goat-anti mouse IgG (Pierce # 31432) was added to each well to plate at a 1:1000 dilution, 100 μl/well and incubate at 22° C. for 30 min. The secondary antibody solution was removed and the plate washed twice with 200 μl/well of 0.05% Tween-PBS at 22° C. and blotted dry. The reaction was developed by adding 100 μl/well tetramethylbenzidine (TMB) reagent IgG (Pierce # 34022, 1 step Turbo TMB-ELISA) to plate and developed at 22° C. for 5 min.

[3] = molecular target: T2, recombinant Cad-11 EC1 human IgG1 fusion protein (R&D Systems Cat. No. 1790-CA-050) (human, UniProt P55287 54-617, limits assumed); experiment: competition ELISA on coated recombinant human Cad-11 EC1 fusion; competitor biotinylated SYN0012/H1M1 at 0.1 µg/ml
T2 construct: Bought protein; the catalogue product may hold more of the extracellular region; also called recombinant human Cad-11 EC1; recombinant human Cad-11 fusion protein; not shown: human IgG1 part of the bought fusion protein
T2 sequence: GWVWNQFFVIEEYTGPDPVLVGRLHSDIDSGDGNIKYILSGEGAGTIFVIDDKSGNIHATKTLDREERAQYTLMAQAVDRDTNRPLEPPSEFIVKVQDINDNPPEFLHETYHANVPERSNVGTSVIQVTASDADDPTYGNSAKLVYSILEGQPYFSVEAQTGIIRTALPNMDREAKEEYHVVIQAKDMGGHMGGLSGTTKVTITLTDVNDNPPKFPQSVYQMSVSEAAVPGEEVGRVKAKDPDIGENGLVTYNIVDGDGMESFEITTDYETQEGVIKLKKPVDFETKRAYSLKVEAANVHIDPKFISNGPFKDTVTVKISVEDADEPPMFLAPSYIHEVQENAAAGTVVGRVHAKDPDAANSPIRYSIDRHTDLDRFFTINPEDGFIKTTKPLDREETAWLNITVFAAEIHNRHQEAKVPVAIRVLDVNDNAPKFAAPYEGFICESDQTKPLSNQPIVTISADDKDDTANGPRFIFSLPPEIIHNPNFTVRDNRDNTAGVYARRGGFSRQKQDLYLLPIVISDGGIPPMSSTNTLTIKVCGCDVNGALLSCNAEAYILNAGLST
Method: (§1) The binding of the purified humanized composite variant antibodies (SDP011 to SDP151) to a recombinant Cad-11 EC1 human IgG1 fusion protein was assessed in a competition binding ELISA. A dilution series from 5 μg/ml to 0.0022 μg/ml of the humanized or control (SYN0012/H1M1) antibodies was premixed with a constant concentration of biotinylated murine anti-Cad-11 antibody, SYN0012/H1M1 (0.1 μg/ml, final concentration), before incubating for 1 hour at room temperature on a Nunc Immuno MaxiSorp 96 well flat bottom microtitre plate (Fisher Cat. No. DIS-971-030J) pre-coated with 0.25 μg/ml recombinant human Cad-11 EC1 (R&D Systems Cat. No. 1790-CA-050) diluted in PBS. The binding of the biotinylated mAb was detected with streptavidin-HRP (Sigma Cat. No. 55512) and tetramethylbenzidine (TMB) substrate (Invitrogen Cat. No. 00-2023).
The relative IC50 was calculated by dividing the value for the test antibody by that of SYN0012. Antibody expression levels given are for static cultures in T flasks. PI are calculated.

[4] = molecular target: T2, recombinant Cad-11 EC1 human IgG1 …; experiment: competition ELISA on coated recombinant human Cad-11 EC1 fusion protein; competitor biotinylated SYN0012 at 0.1 µg/ml, streptavidin-HRP, OD450
Method: as §1

[5] = molecular target: T1, BSA coupled 37-mer Cad-11 peptide …; experiment: ELISA on BSA coupled 37-mer cadherin peptides, coat 500 ng/ml
Method: A dilution series from 5 μg/ml to 8 ng/ml in a volume of 100 μl/well of each the humanized anti-Cad-11 antibodies were incubated in the peptide coated wells and incubated at 22° C. for 1 hr. Antibody solution was removed from the wells and the plate washed twice with 200 μl/well of 0.05% Tween-PBS at 22° C. and blotted dry. The goat-anti mouse IgG (Pierce # 31432) was added to each well to plate at a 1:1000 dilution, 100 μl/well and incubate at 22° C. for 30 min. The secondary antibody solution was removed and the plate washed twice with 200 μl/well of 0.05% Tween-PBS at 22° C. and blotted dry. The reaction was developed by adding 100 μl/well tetramethylbenzidine (TMB) reagent IgG (Pierce # 34022, 1 step Turbo TMB-ELISA) to plate and developed at 22° C. for 5 min.
The greatest cross reactivity was seen against Cad-8. […] This assay was repeated with the Cad-11, Cad-8 and Cad-18 antigens with a lower antigen coat concentration of 50 ng/ml and a wider dilution series of the SDP051 antibody (FIG. 41B). […] An EC50 for Cad-18 could not be established due to the low level of binding observed.

[6] = molecular target: T2, recombinant Cad-11 EC1 human IgG1 …; experiment: competition ELISA: antibody dilution series premixed with biotinylated SYN0012/H1M1 (0.1 µg/ml) on plate-coated recombinant human Cad-11 EC1 fusion protein; OD450 = bound biotinylated SYN0012
Method: as §1

Molecule: human Cad-11-EC1-hIgG2-Fc1 fusion protein (Fc fusion)
in vitro cell aggregation assay [1]: 3 µg/mL

B1: humanized anti-Cad-11 antibody SDP081 (Vκ2/VH3) (antibody, IgG4, V domains shown)
VH: EVQLVQSGAEVKKPGASVKISCKASGYSFTGYFMNWVRQAPGQGLEWIGRINPYTGDTFYNQKFKGRATLTVDKSTSTAYMELSSLRSEDTAVYYCGRLGSRYWYFDVWGQGTTVTVSS
VL: DVLMTQTPLSSPVTLGQPASISCRSSQSIIHSNGNTYLEWYLQKPGQSPQLLIYKVSNRFSGVPDRFSGSGSGTDFTLKISRVEAEDVGVYYCFQGSHVPWTFGQGTKLEIK
notes: humanized IgG4 (S241P), kappa
EC50 (read off the curve) [2]: ~0.08 µg/mL | relative IC50 (IC50 of the test antibody divided by that of SYN0012) [3]: 0.42 ratio (column head prints µg/mL)

B2: humanized anti-Cad-11 antibody SDP031 (Vκ1/VH3) (antibody, IgG4, V domains shown)
VH: B1 VH
VL: B1 VL with S68T
notes: humanized IgG4 (S241P), kappa
IC50 (read off the curve) [4]: ~0.2 µg/mL | EC50 (read off the curve) [2]: ~0.06 µg/mL | relative IC50 (IC50 of the test antibody divided by that of SYN0012) [3]: 0.84 ratio (column head prints µg/mL) | fold greater binding to the Cad-11 antigen than to the related antigens from the other cadherins [5]: > 20 fold

B4: humanized anti-Cad-11 antibody SDP041 (Vκ1/VH4) (antibody, IgG4, V domains shown)
VH: B1 VH with I20V, L70I
VL: B1 VL with S68T
notes: humanized IgG4 (S241P), kappa
IC50 (read off the curve) [4]: ~0.1 µg/mL | EC50 (read off the curve) [2]: ~0.06 µg/mL | relative IC50 (IC50 of the test antibody divided by that of SYN0012) [3]: 0.65 ratio (column head prints µg/mL)

B6: humanized anti-Cad-11 antibody SDP091 (Vκ2/VH4) (antibody, IgG4, V domains shown)
VH: B1 VH with I20V, L70I
VL: B1 VL
notes: humanized IgG4 (S241P), kappa
EC50 (read off the curve) [2]: ~0.07 µg/mL | relative IC50 (IC50 of the test antibody divided by that of SYN0012) [3]: 0.57 ratio (column head prints µg/mL)

B7: humanized anti-Cad-11 antibody SDP061 (Vκ2/VH1) (antibody, IgG4, V domains shown)
VH: B1 VH with A9P, V11L, R38K, P41H, T76S, S84V, R87S, T91S
VL: B1 VL
notes: humanized IgG4 (S241P), kappa
EC50 (read off the curve) [2]: ~0.06 µg/mL | relative IC50 (IC50 of the test antibody divided by that of SYN0012) [3]: 0.47 ratio (column head prints µg/mL) | fold greater binding to the Cad-11 antigen than to the related antigens from the other cadherins [5]: > 20 fold

B8: humanized anti-Cad-11 antibody SDP071 (Vκ2/VH2) (antibody, IgG4, V domains shown)
VH: B1 VH with R38K
VL: B1 VL
notes: humanized IgG4 (S241P), kappa
EC50 (read off the curve) [2]: ~0.07 µg/mL | relative IC50 (IC50 of the test antibody divided by that of SYN0012) [3]: 0.33 ratio (column head prints µg/mL) | fold greater binding to the Cad-11 antigen than to the related antigens from the other cadherins [5]: > 20 fold

B12: humanized anti-Cad-11 antibody SDP021 (Vκ1/VH2) (antibody, IgG4, V domains shown)
VH: B1 VH with R38K
VL: B1 VL with S68T
notes: humanized IgG4 (S241P), kappa
IC50 (read off the curve) [4]: ~0.1 µg/mL | EC50 (read off the curve) [2]: ~0.06 µg/mL | relative IC50 (IC50 of the test antibody divided by that of SYN0012) [3]: 0.67 ratio (column head prints µg/mL)

B13: humanized anti-Cad-11 antibody SDP011 (Vκ1/VH1) (antibody, IgG4, V domains shown)
VH: B1 VH with A9P, V11L, R38K, P41H, T76S, S84V, R87S, T91S
VL: B1 VL with S68T
notes: humanized IgG4 (S241P), kappa
IC50 (read off the curve) [4]: ~0.2 µg/mL | EC50 (read off the curve) [2]: ~0.07 µg/mL | relative IC50 (IC50 of the test antibody divided by that of SYN0012) [3]: 0.91 ratio (column head prints µg/mL)

Next, values leading:

EC50 (read off the curve) [2]: ~0.06 µg/mL | relative IC50 (IC50 of the test antibody divided by that of SYN0012) [3]: 0.61 ratio (column head prints µg/mL) | IC50 (read off the curve) [6]: ~0.2 µg/mL
B3: humanized anti-Cad-11 antibody SDP141 (Vκ3/VH4) (antibody, IgG4, V domains shown)
VH: B1 VH with I20V, L70I
VL: B1 VL with L3V
notes: humanized IgG4 (S241P), kappa

EC50 (read off the curve) [2]: ~0.06 µg/mL | relative IC50 (IC50 of the test antibody divided by that of SYN0012) [3]: 0.72 ratio (column head prints µg/mL) | IC50 (read off the curve) [6]: ~0.2 µg/mL
B5: humanized anti-Cad-11 antibody SDP151 (Vκ3/VH5) (antibody, IgG4, V domains shown)
VH: B1 VH with I20V, A68V, L70I
VL: B1 VL with L3V
notes: humanized IgG4 (S241P), kappa

EC50 (read off the curve) [2]: ~0.07 µg/mL | relative IC50 (IC50 of the test antibody divided by that of SYN0012) [3]: 0.53 ratio (column head prints µg/mL)
B9: humanized anti-Cad-11 antibody SDP101 (Vκ2/VH5) (antibody, IgG4, V domains shown)
VH: B1 VH with I20V, A68V, L70I
VL: B1 VL
notes: humanized IgG4 (S241P), kappa

EC50 (read off the curve) [2]: ~0.07 µg/mL | relative IC50 (IC50 of the test antibody divided by that of SYN0012) [3]: 0.68 ratio (column head prints µg/mL) | IC50 (read off the curve) [6]: ~0.2 µg/mL
B10: humanized anti-Cad-11 antibody SDP111 (Vκ3/VH1) (antibody, IgG4, V domains shown)
VH: B1 VH with A9P, V11L, R38K, P41H, T76S, S84V, R87S, T91S
VL: B1 VL with L3V
notes: humanized IgG4 (S241P), kappa

EC50 (read off the curve) [2]: ~0.06 µg/mL | relative IC50 (IC50 of the test antibody divided by that of SYN0012) [3]: 0.52 ratio (column head prints µg/mL) | IC50 (read off the curve) [6]: ~0.2 µg/mL
B11: humanized anti-Cad-11 antibody SDP121 (Vκ3/VH2) (antibody, IgG4, V domains shown)
VH: B1 VH with R38K
VL: B1 VL with L3V
notes: humanized IgG4 (S241P), kappa

EC50 (read off the curve) [2]: ~0.07 µg/mL | relative IC50 (IC50 of the test antibody divided by that of SYN0012) [3]: 0.55 ratio (column head prints µg/mL) | IC50 (read off the curve) [6]: ~0.2 µg/mL
B14: humanized anti-Cad-11 antibody SDP131 (Vκ3/VH3) (antibody, IgG4, V domains shown)
VH: B1 VH
VL: B1 VL with L3V
notes: humanized IgG4 (S241P), kappa
